# Laboratory results published in patent US20230383009A1 (CARIBOU BIOSCIENCES, published 2023).
# Experiments:
# [1] = molecular target: T1, extracellular ROR1 protein (human, UniProt Q01973 30-406); test: ELISA
# T1 construct: extracellular domain
# [2] = molecular target: T2, ROR1 on human cancer cell lines (HepG2, MDA231, HT-29, SKOV-3) (human, UniProt Q01973 30-937); test: flow cytometry (FACS) on cancer cell lines
# T2 construct: whole, on cells; Endogenous ROR1 of tumour cell lines, not transfected cells; also called ROR1-positive cells; ROR1-expressing cell line SKOV-3
# From the text: Normal keratinocytes were used as a negative control (FIG. 4). (MFI: […] compared to the isotype).
# [3] = molecular target: T3, ROR1 extracellular domain fused to human Fc (hFc) protein (human, UniProt Q01973 30-406); test: Western blot, anti-ROR1 scFv-mouse Fc fusion as primary antibody, anti-mouse IgG-HRP as secondary
# T3 construct: extracellular domain; also called ROR1-human Fc fusion protein; human ROR1 antigen; not shown: human Fc (hFc)
# From the text: In this example, we generated a mouse monoclonal anti-ROR1 antibody using standard hybridoma technology. The mouse anti-ROR1 antibody (IgG1 type) detected extracellular ROR1 protein by ELISA (data not shown). We sequenced this hybridoma clone 2H6 and generated an scFv using VH and VL (see further in Example 2). […] The ROR1-human Fc fusion protein was detected with an antibody directed against the human Fc domain.
# T2 sequence (Q01973 30-937): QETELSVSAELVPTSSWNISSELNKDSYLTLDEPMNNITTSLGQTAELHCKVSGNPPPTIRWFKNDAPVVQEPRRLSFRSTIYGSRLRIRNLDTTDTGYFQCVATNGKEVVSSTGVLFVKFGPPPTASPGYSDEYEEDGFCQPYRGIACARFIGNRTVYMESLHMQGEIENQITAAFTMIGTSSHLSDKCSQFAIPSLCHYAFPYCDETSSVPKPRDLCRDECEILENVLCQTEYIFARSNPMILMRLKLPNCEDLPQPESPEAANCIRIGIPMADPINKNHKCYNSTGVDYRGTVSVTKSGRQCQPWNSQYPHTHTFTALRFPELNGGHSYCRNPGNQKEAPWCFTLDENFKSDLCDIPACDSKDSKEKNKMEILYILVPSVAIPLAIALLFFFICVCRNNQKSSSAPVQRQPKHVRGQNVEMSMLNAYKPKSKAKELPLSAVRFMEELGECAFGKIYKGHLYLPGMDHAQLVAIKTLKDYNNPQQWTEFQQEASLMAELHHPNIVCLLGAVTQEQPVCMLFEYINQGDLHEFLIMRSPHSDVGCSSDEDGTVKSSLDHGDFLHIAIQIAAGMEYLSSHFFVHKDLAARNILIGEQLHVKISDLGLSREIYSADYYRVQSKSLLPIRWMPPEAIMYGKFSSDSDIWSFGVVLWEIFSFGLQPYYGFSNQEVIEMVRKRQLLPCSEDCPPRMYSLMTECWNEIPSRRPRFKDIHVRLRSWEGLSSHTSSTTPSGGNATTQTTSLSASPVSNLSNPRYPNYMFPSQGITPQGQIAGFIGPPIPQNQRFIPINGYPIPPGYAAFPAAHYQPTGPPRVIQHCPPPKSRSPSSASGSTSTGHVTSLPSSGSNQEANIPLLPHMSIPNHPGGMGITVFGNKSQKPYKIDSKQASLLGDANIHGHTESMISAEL
# T1 sequence (Q01973 30-406): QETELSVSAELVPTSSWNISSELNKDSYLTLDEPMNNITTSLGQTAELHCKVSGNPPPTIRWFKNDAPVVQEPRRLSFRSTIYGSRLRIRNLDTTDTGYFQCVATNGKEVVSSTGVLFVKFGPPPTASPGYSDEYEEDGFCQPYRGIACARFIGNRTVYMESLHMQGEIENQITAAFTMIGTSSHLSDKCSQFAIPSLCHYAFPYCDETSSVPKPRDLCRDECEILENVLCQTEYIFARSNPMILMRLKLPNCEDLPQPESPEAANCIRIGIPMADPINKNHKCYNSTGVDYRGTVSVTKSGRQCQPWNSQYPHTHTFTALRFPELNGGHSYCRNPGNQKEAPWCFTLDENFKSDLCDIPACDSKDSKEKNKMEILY
# T3 sequence (Q01973 30-406): as above
Binder,binding result [1],binding result [2],binding result [3]
"mouse monoclonal anti-ROR1 antibody, hybridoma clone 2H6 (antibody, V domains shown, Hybridoma antibody, mouse IgG1 type; also called mouse anti-ROR1 antibody (IgG1 type); mouse anti-ROR1 monoclonal antibody) VH: VKLVESGGGLVKPGGSLKLSCAASGFTFSTYAMSWVRQTPEKRLEWVASISSGGNTYYPDSVKGRFTISRDNARHILYLQMSSLRSEDTAMYYCARDSYYFGNSVYYAMDYWGQGTSVTVSS VL: DIKMTQSPSSMYASLGERVTITCKASQDINSYFSWFQQKPGKSPKTLIYRANRLVDGVPSRFSGSGSGQDYSLTISSLEYEDMGIYYCLQYDEFPYTFGGGTKLEIKR",binds,binds,–
"anti-ROR1 scFv-mouse Fc fusion (scFv of clone 2H6) (Fc fusion, Used as the primary antibody in the Western blot. scFv is VH-(G4S)3-VL; The mouse Fc part is not described; also called anti-ROR1 scFv (mouse clone 2H6); not shown: mouse Fc) scFv: VKLVESGGGLVKPGGSLKLSCAASGFTFSTYAMSWVRQTPEKRLEWVASISSGGNTYYPDSVKGRFTISRDNARHILYLQMSSLRSEDTAMYYCARDSYYFGNSVYYAMDYWGQGTSVTVSSGGGGSGGGGSGGGGSDIKMTQSPSSMYASLGERVTITCKASQDINSYFSWFQQKPGKSPKTLIYRANRLVDGVPSRFSGSGSGQDYSLTISSLEYEDMGIYYCLQYDEFPYTFGGGTKLEIKR",–,–,binds
